Patent publication US20240261333A1, “NOVEL TARGETS FOR ENHANCING ANTI-TUMOR IMMUNITY” (THE BROAD INSTITUTE, INC., priority 2021, published 2024)

T1: B3GNT2 (Homo sapiens, UniProt Q9NY97)
T1 construct: The respective ORFs of candidate genes [CD274 (NM_014143), MCL1 (NM_021960), JUNB (NM_002229), and B3GNT2 (NM_006577)] were synthesized; expressed in transfected cells; host or cells: A375 melanoma cells (lentiviral ORF overexpression)
T1 sequence (Q9NY97 1-397): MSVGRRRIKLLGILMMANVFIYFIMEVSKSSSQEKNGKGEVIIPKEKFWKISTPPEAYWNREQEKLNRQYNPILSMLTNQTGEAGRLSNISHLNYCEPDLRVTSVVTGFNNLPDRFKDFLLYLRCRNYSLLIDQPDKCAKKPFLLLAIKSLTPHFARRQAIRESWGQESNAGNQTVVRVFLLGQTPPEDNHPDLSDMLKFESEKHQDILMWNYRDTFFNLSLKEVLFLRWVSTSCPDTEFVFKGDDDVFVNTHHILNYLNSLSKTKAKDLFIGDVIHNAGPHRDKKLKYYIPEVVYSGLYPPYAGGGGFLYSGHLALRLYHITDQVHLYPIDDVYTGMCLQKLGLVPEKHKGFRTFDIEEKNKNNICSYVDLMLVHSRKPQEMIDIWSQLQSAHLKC

B1: CANX (protein)
chain: HDGHDDDVIDIEDDLDDVIEEVEDSKPDTTAPPSSPKVTYKAPVPTGEVYFADSFDRGTLSGWILSKAKKDDTDDEIAKYDGKWEVEEMKESKLPGDKGLVLMSRAKHHAISAKLNKPFLFDTKPLIVQYEVNFQNGIECGGAYVKLLSKTPELNLDQFHDKTPYTIMFGPDKCGEDYKLHFIFRHKNPKTGIYEEKHAKRPDADLKTYFTDKKTHLYTLILNPDNSFEILVDQSVVNSGNLLNDMTPPVNPSREIEDPEDRKPEDWDERPKIPDPEAVKPDDWDEDAPAKIPDEEATKPEGWLDDEPEYVPDPDAEKPEDWDEDMDGEWEAPQIANPRCESAPGCGVWQRPVIDNPNYKGKWKPPMIDNPSYQGIWKPRKIPNPDFFEDLEPFRMTPFSAIGLELWSMTSDIFFDNFIICADRRIVDDWANDGWGLKKAADGAAEPGVVGQMIEAAEERPWLWVVYILTVALPVFLVILFCCSGKKQTSGMEYKKTDAPQPDVKEEEEEKEEEKDKGDEEEEGEEKLEEKQKSDAEEDGGTVSQEEEDRKPKAEEDEILNRSPRNRKPRRE
B2: UQCRC2 (protein)
chain: SLKVAPKVKATAAPAGAPPQPQDLEFTKLPNGLVIASLENYSPVSRIGLFIKAGSRYEDFSNLGTTHLLRLTSSLTTKGASSFKITRGIEAVGGKLSVTATRENMAYTVECLRGDVDILMEFLLNVTTAPEFRRWEVADLQPQLKIDKAVAFQNPQTHVIENLHAAAYRNALANPLYCPDYRIGKVTSEELHYFVQNHFTSARMALIGLGVSHPVLKQVAEQFLNMRGGLGLSGAKANYRGGEIREQNGDSLVHAAFVAESAVAGSAEANAFSVLQHVLGAGPHVKRGSNTTSHLHQAVAKATQQPFDVSAFNASYSDSGLFGIYTISQATAAGDVIKAAYNQVKTIAQGNLSNTDVQAAKNKLKAGYLMSVESSECFLEEVGSQALVAGSYMPPSTVLQQIDSVANADIINAAKKFVSGQKSMAASGNLGHTPFVDEL
B3: CKAP4 (protein)
chain: MPSAKQRGSKGGHGAASPSEKGAHPSGGADDVAKKPPPAPQQPPPPPAPHPQQHPQQHPQNQAHGKGGHRGGGGGGGKSSSSSSASAAAAAAAASSSASCSRRLGRALNFLFYLALVAAAAFSGWCVHHVLEEVQQVRRSHQDFSRQREELGQGLQGVEQKVQSLQATFGTFESILRSSQHKQDLTEKAVKQGESEVSRISEVLQKLQNEILKDLSDGIHVVKDARERDFTSLENTVEERLTELTKSINDNIAIFTEVQKRSQKEINDMKAKVASLEESEGNKQDLKALKEAVKEIQTSAKSREWDMEALRSTLQTMESDIYTEVRELVSLKQEQQAFKEAADTERLALQALTEKLLRSEESVSRLPEEIRRLEEELRQLKSDSHGPKEDGGFRHSEAFEALQQKSQGLDSRLQHVEDGVLSMQVASARQTESLESLLSKSQEHEQRLAALQGRLEGLGSSEADQDGLASTVRSLGETQLVLYGDVEELKRSVGELPSTVESLQKVQEQVHTLLSQDQAQAARLPPQDFLDRLSSLDNLKASVSQVEADLKMLRTAVDSLVAYSVKIETNENNLESAKGLLDDLRNDLDRLFVKVEKIHEKV
B4: PRR4 (protein)
chain: QSTDNDVNYEDFTFTIPDVEDSSQRPDQGPQRPPPEGLLPRPPGDSGNQDDGPQQRPPKPGGHHRHPPPPPFQNQQRPPRRGHRQLSLPRFPSVSLQEASSFFQRDRPARHPQEQPLW
B5: SRSF7 (protein)
chain: MSRYGRYGGETKVYVGNLGTGAGKGELERAFSYYGPLRTVWIARNPPGFAFVEFEDPRDAEDAVRGLDGKVICGSRVRVELSTGMPRRSRFDRPPARRPFDPNDRCYECGEKGHYAYDCHRYSRRRRSRSRSRSHSRSRGRRYSRSRSRSRGRRSRSASPRRSRSISLRRSRSASLRRSRSGSIKGSRYFQSPSRSRSRSRSISRPRSSRSKSRSPSPKRSRSPSGSPRRSASPERMD
B6: HSPH1 (protein)
chain: SVVGLDVGSQSCYIAVARAGGIETIANEFSDRCTPSVISFGSKNRTIGVAAKNQQITHANNTVSNFKRFHGRAFNDPFIQKEKENLSYDLVPLKNGGVGIKVMYMGEEHLFSVEQITAMLLTKLKETAENSLKKPVTDCVISVPSFFTDAERRSVLDAAQIVGLNCLRLMNDMTAVALNYGIYKQDLPSLDEKPRIVVFVDMGHSAFQVSACAFNKGKLKVLGTAFDPFLGGKNFDEKLVEHFCAEFKTKYKLDAKSKIRALLRLYQECEKLKKLMSSNSTDLPLNIECFMNDKDVSGKMNRSQFEELCAELLQKIEVPLYSLLEQTHLKVEDVSAVEIVGGATRIPAVKERIAKFFGKDISTTLNADEAVARGCALQCAILSPAFKVREFSVTDAVPFPISLIWNHDSEDTEGVHEVFSRNHAAPFSKVLTFLRRGPFELEAFYSDPQGVPYPEAKIGRFVVQNVSAQKDGEKSRVKVKVRVNTHGIFTISTASMVEKVPTEENEMSSEADMECLNQRPPENPDTDANEKKVDQPPEAKKPKIKVVNVELPIEANLVWQLGKDLLNMYIETEGKMIMQDKLEKERNDAKNAVEEYVYEFRDKLCGPYEKFICEQDHQNFLRLLTETEDWLYEEGEDQAKQAYVDKLEELMKIGTPVKVRFQEAEERPKMFEELGQRLQHYAKIAADFRNKDEKYNHIDESEMKKVEKSVNEVMEWMNNVMNAQAKKSLDQDPVVRAQEIKTKIKELNNTCEPVVTQPKPKIESPKLERTPNGPNIDKKEEDLEDKNNFGAEPPHQNGECYPNEKNSVNMDLD
B7: SERPINE2 (protein)
chain: SHFNPLSLEELGSNTGIQVFNQIVKSRPHDNIVISPHGIASVLGMLQLGADGRTKKQLAMVMRYGVNGVGKILKKINKAIVSKKNKDIVTVANAVFVKNASEIEVPFVTRNKDVFQCEVRNVNFEDPASACDSINAWVKNETRDMIDNLLSPDLIDGVLTRLVLVNAVYFKGLWKSRFQPENTKKRTFVAADGKSYQVPMLAQLSVFRCGSTSAPNDLWYNFIELPYHGESISMLIALPTESSTPLSAIIPHISTKTIDSWMSIMVPKRVQVILPKFTAVAQTDLKEPLKVLGITDMFDSSKANFAKITTGSENLHVSHILQKAKIEVSEDGTKASAATTAILIARSSPPWFIVDRPFLFFIRHNPTGAVLFMGQINKP
B8: SLC25A3 (protein)
chain: AVEEQYSCDYGSGRFFILCGLGGIISCGTTHTALVPLDLVKCRMQVDPQKYKGIFNGFSVTLKEDGVRGLAKGWAPTFLGYSMQGLCKFGFYEVFKVLYSNMLGEENTYLWRTSLYLAASASAEFFADIALAPMEAAKVRIQTQPGYANTLRDAAPKMYKEEGLKAFYKGVAPLWMRQIPYTMMKFACFERTVEALYKFVVPKPRSECSKPEQLVVTFVAGYIAGVFCAIVSHPADSVVSVLNKEKGSSASLVLKRLGFKGVWKGLFARIIMIGTLTALQWFIYDSVKVYFRLPRPPPPEMPESLKKKLGLTQ
B9: LOXL4 (protein)
chain: QSLGTTKLRLVGPESKPEEGRLEVLHQGQWGTVCDDNFAIQEATVACRQLGFEAALTWAHSAKYGQGEGPIWLDNVRCVGTESSLDQCGSNGWGVSDCSHSEDVGVICHPRRHRGYLSETVSNALGPQGRRLEEVRLKPILASAKQHSPVTEGAVEVKYEGHWRQVCDQGWTMNNSRVVCGMLGFPSEVPVDSHYYRKVWDLKMRDPKSRLKSLTNKNSFWIHQVTCLGTEPHMANCQVQVAPARGKLRPACPGGMHAVVSCVAGPHFRPPKTKPQRKGSWAEEPRVRLRSGAQVGEGRVEVLMNRQWGTVCDHRWNLISASVVCRQLGFGSAREALFGARLGQGLGPIHLSEVRCRGYERTLSDCPALEGSQNGCQHENDAAVRCNVPNMGFQNQVRLAGGRIPEEGLLEVQVEVNGVPRWGSVCSENWGLTEAMVACRQLGLGFAIHAYKETWFWSGTPRAQEVVMSGVRCSGTELALQQCQRHGPVHCSHGGGRFLAGVSCMDSAPDLVMNAQLVQETAYLEDRPLSQLYCAHEENCLSKSADHMDWPYGYRRLLRFSTQIYNLGRTDFRPKTGRDSWVWHQCHRHYHSIEVFTHYDLLTLNGSKVAEGHKASFCLEDTNCPTGLQRRYACANFGEQGVTVGCWDTYRHDIDCQWVDITDVGPGNYIFQVIVNPHYEVAESDFSNNMLQCRCKYDGHRVWLHNCHTGNSYPANAELSLEQEQRLRNNLI

Target: T1, B3GNT2
Assay: Co-IP of FLAG-tagged B3GNT2 followed by mass spectrometry
Assay type: cell-based
Design: C-term IgG / C-term flag: unit not given here
Details: mass spectrometry count, unit not given; for C-term flag / N-term FLAG: Co-IP with FLAG antibody; for C-term flag / C-term IgG: C-terminally FLAG-tagged B3GNT2; for N-term FLAG / N-term IgG: N-terminally FLAG-tagged B3GNT2; for C-term IgG / N-term IgG: Co-IP with IgG control antibody
In short: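 Co-purifying proteins were identified by fractionated nano-LC–MS/MS on an Orbitrap Elite, run data-dependent. Beforehand, lysates in 1% Triton X-100/HEPES buffer were incubated overnight at 4° C with anti-FLAG or […] and pulled down on Protein A/G magnetic beads for 4 h. Duplicate biological replicates.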

Row | Molecule | C-term flag | N-term FLAG | C-term IgG | N-term IgG
1 | B1 | 11 | 6 | 0 | 0
2 | B2 | 4 | 13 | 0 | 0
3 | B3 | 14 | 2 | 0 | 0
4 | B4 | 0 | 2 | 0 | 0
5 | B5 | 0 | 2 | 0 | 0
6 | B6 | 7 | 8 | 0 | 0
7 | B7 | 11 | 4 | 0 | 0
8 | B8 | 9 | 4 | 0 | 0
9 | B9 | 8 | 5 | 0 | 0
